Assay results published in the supplement of paper PMC9170038.

Test system: MS2 coat protein
Assay: apparent KD of MS2 coat protein; designed switch direction (-1 OFF switch, 1 ON switch): -1; higher = weaker reporter binding
Outline: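 Designed RNA switches with common flanks were transcribed on Illumina chips by stalled E. coli RNA polymerase and titrated with SNAP-549-labelled MS2 coat protein, from 0.7 or 1.5 nM doubling to 3 µM, in Tris-HCl pH 7.5 buffer with KCl, MgCl2, BSA, DTT, tRNA and Tween-20. Steps lasted 0.8–1.5 h (lowest) to 10–20 min (highest). Titrations ran without input, with 200 uM small-molecule ligand, or with an oligonucleotide input. Normalised cluster fluorescence was curve-fitted, and apparent KD is the per-design median over clusters.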

[1] = input ligand: microRNA oligo, concentration not stated
[2] = Eterna round: R95, input ligand: microRNA oligo, concentration not stated
[3] = Eterna round: R95, input ligand: FMN 200 uM
[4] = Eterna round: R95, input ligand: none

| Sequence | apparent KD of MS2 coat protein (input ligand: FMN 200 uM) [nM] | apparent KD of MS2 coat protein [1] [nM] | apparent KD of MS2 coat protein (input ligand: none) [nM] | apparent KD of MS2 coat protein [2] [nM] | apparent KD of MS2 coat protein [3] [nM] | apparent KD of MS2 coat protein [4] [nM] |
| --- | --- | --- | --- | --- | --- | --- |
| UAUAUAUAGUAAGGAUAUGUAUUUAUUUUAUCAACAGAAGGUACUGACAUGAGGAUCACCCAUGUUUUAGUGUGGGCAUGUAGA [JMF's solution 26] (Eterna round: R96, puzzle: Exclusion NG 1) | 155 | 69.7 | 85.7 |  |  |  |
| UUUUAACAUGAGGAUCACCCAUGUGAGGAUAUCGAAAUUUAUAUUUAUAUUAAUUAUACGAGAAGGCACAUUUU [JMF 86] (puzzle: Exclusion 1) |  |  |  | 65.5 |  |  |
| GAUUAGAUAGGAUAUACAGGCUCGUCUUUAUAUUGAUCCCGACAUGAGGAUCACCCAUGUAGAAGGAUUAGAUU [Mod 30 - Jieux - Exclusion 2] (Eterna round: R97, puzzle: Exclusion 2) | 25.7 |  | 26.6 |  |  |  |
| CAUAUAGUAGUGAGGAUAUGCGAAUAUAUAAUUAAGUAGAAGGCACAUGAGGAUCACCCAUGUAUAUUGUAAAG [EX-4 Malc] (puzzle: Brourd's mod of Exclusion 4) |  |  |  | 18.9 |  |  |
| GCACUGCGAGGAUAUACAUGAGGAUCACCCAUGUGUCGGCAGACUUGUUUGGUCUAAGGUAGAAGGCGCGUAAA [JR_Ex3_Sub003] (Eterna round: R97, puzzle: Exclusion 3) | 145 |  | 39.7 |  |  |  |
| CAUGUCCAACGAGGAUAUGGUAAAGGAAGUGUACCAGAAGGCGUGCGGACAUGAGGAUCACCCAUGUCGCGCGGUGCGAUGUGG [MOD3 Nando EXNG 1.1] (Eterna round: R96, puzzle: Exclusion NG 1) | 37.2 | 15.8 | 29.3 |  |  |  |
| AGAAGUAGUAACCGAUCCUACAUGAGGAUCACCCAUGUAGCGAGACGUGCACGCGAAGCUCGUCAGACUACCAGAUG [salish99_TOv1_r3_025] (puzzle: Sensor v3, turn-off variant 1) |  |  |  | 139 | 138 | 159 |
| ACACUACAUGAGGAUCACCCAUGUCAGGAUAUCGAUAUCACAACUCAUCAACCUCACUCGAGAAGGGACACAUA [wifeneedsadrink] (puzzle: Exclusion 1) |  |  |  | 22.1 |  |  |
| GUAUGGUGAGGAUAUCGCCCUGCCUGCUCAAAGGCGAUGGACGAGAAGGCACAUGAGGAUCACCCAUGUCUGGG [Eternabot (L2) Solution 65] (Eterna round: R97, puzzle: Exclusion 4) | 161 |  | 539 |  |  |  |
| GUUGUUUAUGUAGGAUAUGCGAGGCGAGCCUAAGCAGAAGGACAUGAGGAUCACCCAUGUAUUGCGGUCUGCGUUCAGAUCGCU [salish99_ExNG1_r4_016] (Eterna round: R96, puzzle: Exclusion NG 1) | 183 | 19.2 | 26.9 |  |  |  |
| CUGAGCAGACGGAAAUCCAACAUGAGGAUCACCCAUGUCUCAAAAGCUUUUUGCUCGUCUUAUCUUCCUCUGCUCUC [Cecelein] (puzzle: Sensor v3, turn-off variant 1) |  |  |  | 16.8 | 12.9 | 11.8 |
| UGUUGUUACGCAGGAUAUGUAUGAGGAUCACCCAUAAAACACACACUCCCAUGAGGAUCACCCAUGUAGAAGGGCGGGUUAACA [pwkr exNG2 2xF5 1xFMN.8] (Eterna round: R96, puzzle: Exclusion NG 2) | 124 | 54.9 | 80.8 |  |  |  |
